The experiment concerns the target Gal4-PAX6 fusion protein (human, UniProt P26367 1-422). Description: two-hybrid.

Chain of Gal4-PAX6 fusion protein (P26367 whole entry, the tested form may be a part): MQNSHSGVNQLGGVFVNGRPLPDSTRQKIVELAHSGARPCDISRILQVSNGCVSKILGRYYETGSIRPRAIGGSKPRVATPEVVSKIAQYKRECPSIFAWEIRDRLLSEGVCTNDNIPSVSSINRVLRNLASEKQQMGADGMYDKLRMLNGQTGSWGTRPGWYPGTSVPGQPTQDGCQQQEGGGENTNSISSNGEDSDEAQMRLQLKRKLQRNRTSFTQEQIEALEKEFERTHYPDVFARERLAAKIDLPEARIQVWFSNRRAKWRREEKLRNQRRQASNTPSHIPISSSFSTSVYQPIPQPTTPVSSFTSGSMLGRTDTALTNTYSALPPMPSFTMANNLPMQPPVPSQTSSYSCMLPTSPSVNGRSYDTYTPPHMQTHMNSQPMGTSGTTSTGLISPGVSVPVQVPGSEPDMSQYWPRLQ

B1: VP16-AR fusion protein (receptor, UniProt P10275 1-920, looked up)
chain: MEVQLGLGRVYPRPPSKTYRGAFQNLFQSVREVIQNPGPRHPEAASAAPPGASLLLLQQQQQQQQQQQQQQQQQQQQQQQETSPRQQQQQQGEDGSPQAHRRGPTGYLVLDEEQQPSQPQSALECHPERGCVPEPGAAVAASKGLPQQLPAPPDEDDSAAPSTLSLLGPTFPGLSSCSADLKDILSEASTMQLLQQQQQEAVSEGSSSGRAREASGAPTSSKDNYLGGTSTISDNAKELCKAVSVSMGLGVEALEHLSPGEQLRGDCMYAPLLGVPPAVRPTPCAPLAECKGSLLDDSAGKSTEDTAEYSPFKGGYTKGLEGESLGCSGSAAAGSSGTLELPSTLSLYKSGALDEAAAYQSRDYYNFPLALAGPPPPPPPPHPHARIKLENPLDYGSAWAAAAAQCRYGDLASLHGAGAAGPGSGSPSAAASSSWHTLFTAEEGQLYGPCGGGGGGGGGGGGGGGGGGGGGGGEAGAVAPYGYTRPPQGLAGQESDFTAPDVWYPGGMVSRVPYPSPTCVKSEMGPWMDSYSGPYGDMRLETARDHVLPIDYYFPPQKTCLICGDEASGCHYGALTCGSCKVFFKRAAEGKQKYLCASRNDCTIDKFRRKNCPSCRLRKCYEAGMTLGARKLKKLGNLKLQEEGEASSTTSPTEETTQKLTVSHIEGYECQPIFLNVLEAIEPGVVCAGHDNNQPDSFAALLSSLNELGERQLVHVVKWAKALPGFRNLHVDDQMAVIQYSWMGLMVFAMGWRSFTNVNSRMLYFAPDLVFNEYRMHKSRMYSQCVRMRHLSQEFGWLQITPQEFLCMKALLLFSIIPVDGLKNQKFFDELRMNYIKELDRIIACKRKNPTSCSRRFYQLTKLLDSVQPIARELHQFTFDLLIKSHMVSVDFPEMMAEIISVQVPKILSGKVKPIYFHTQ
Consider B1, for which the “fold luciferase activity (against cells with pGal4 and pVP16)” value was 4 fold.

(Values after paper PMC3729259 (The Prostate, 2010).)
